Assay results as given in US7648964B2, “Use of lacritin in promoting ocular cell survival” (University of Virginia Patent Foundation, priority 2004, dated 2010).

B1: lacritin: recombinant human lacritin from E. coli; mature 119 residue fragment (SEQ ID NO:10) of native lacritin SEQ ID NO:4 (protein, listed as Homo sapiens)
chain: EDASSDSTGADPAQEAGTSKPNEEISGPAEPASPPETTTTAQETSAAAVQGTAKVTSSRQELNPLKSIVEKSILLTEQALAKAGKGMHGGVPGGKQFIENGSEFAQKLLKKFSLLKPWA

Tests used:
[1] = test system: caspase-3; test: Caspase-3 activity in human corneal epithelial cells treated with TNF; format: cell-based; settings: FIG. 11
Description: FIG. 11 graphically illustrates the ability of lacritin and fragments of lacritin to inhibit the ability of tumor necrosis factor (TNF) to regulate caspase-3 activity in human corneal epithelial cells. Go6976 is an inhibitor of protein kinase C. The ordinate represents relative fluorescence units. White bars indicate 3 hours and diagonally-hatched bars indicate 6 hours.
Lacritin-induced proliferation and calcium signaling was studied in the human corneal epithelial (HCE) cell line. HCE cells were grown at 37° C. in DMEM F/12 supplemented with 10% FBS and 50 μg/ml gentamicin. Each experiment was done in a dose- and time-dependent manner using TNF-α (5-20 ng/ml) and lacritin (1-10 nM). Cell viability was measured spectrophotometrically at an absorbance of 570 nm using the MTT assay. Caspase-8 activity was detected fluorometrically by measuring cleavage of the fluorogenic substrate IETD-pNA at an excitation wavelength of 405 nm. Lacritin-induced cell proliferation was studied by H3-thymidine incorporation and via fluorescence-based detection of PKC, PLC and cAMP. Calcium signaling was detected by confocal microscopy of Fluo-4 loaded cells.

[2] = molecular target: T1, syndecan-1 (Homo sapiens, UniProt P18827); test: Pull down binding assay with lysates of transfected cells
T1 construct: expressed in transfected cells; host or cells: HEK293 (syndecan-1); E. coli ER2566 (lacritin-intein)
T1 sequence (P18827 23-310): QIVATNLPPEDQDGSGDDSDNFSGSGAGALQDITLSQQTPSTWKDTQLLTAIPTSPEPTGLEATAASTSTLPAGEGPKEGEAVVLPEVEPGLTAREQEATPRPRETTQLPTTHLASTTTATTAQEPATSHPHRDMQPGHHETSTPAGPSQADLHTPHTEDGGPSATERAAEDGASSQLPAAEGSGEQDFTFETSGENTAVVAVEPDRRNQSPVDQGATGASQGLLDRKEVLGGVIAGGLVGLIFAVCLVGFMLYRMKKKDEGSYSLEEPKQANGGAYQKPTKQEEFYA
From the text: Biotinylated cell surface proteins were applied to lacritin affinity columns. After washing extensively in physiological salt-containing buffer, bound protein was eluted with 1 M NaCl, and identified with avidin-peroxidase using an ECL blot method. In controls, columns lacking lacritin were used. […] 293T cells stably transfected with human syndecan-2 or −4 were kindly provided by Dr. Atsushi Utani (Chiba University). A series of lacritin C-terminal and N-terminal deletion mutants were generated. Pull down binding assays involved incubation of intein-tagged lacritin or intein deletion mutants with lysates of untransfected or transfected cells followed by precipitation and SDS PAGE. Immunolocalization of syndecan-1 in human lacrimal glands was performed using anti-human syndecan-1 antibody (CD138).

[3] = test system: human corneal epithelial cells; test: Calcium signaling in human corneal epithelial cells (Fluo-3AM); format: cell-based; settings: HCE cells
Description: Freshly isolated rat lacrimal acinar cells, and HSG (human salivary gland) ductal and HCE (human corneal epithelial) cell lines were used to study lacritin function. For secretion studies, rat acinar cells were plated serum-free overnight on wells co-coated with 0.05 μM laminin 1 (to ensure adhesion) and 0 to 20 μM lacritin, or alternatively with laminin-1 (0.05 μM) and treated the next day with serum-free medium containing 0 to 162 ng/ml of soluble lacritin for four hours. Unstimulated and stimulated (carbachol 10^−4 M/VIP 10^−8 M) secretions were then collected, assessed (peroxidase assay) and normalized to μg cellular DNA. To study tyrosine phosphorylation, overnight serum-free cultures of both rat lacrimal acinar and HSG cells were washed and treated with 10 ng/ml of soluble lacritin for 0.5, 2.5, 10, and 30 minutes. Py(20) anti-phosphotyrosine antibody immunoprecipitation of cell lysates was then examined in Western blots of 7% SDS PAGE gels using Py(20) and ECL for detection. […] Using an inverted Zeiss 510 LSM for visualization, 50 second baseline images were first recorded. While the laser was running, lacritin was added (final concentration 4 and 40 ng/ml) and the response continually monitored every 786 msec for a minimum of 200 sec.

[4] = test system: FAS/APO-1; test: Antibody array screen, salivary ductal cells; format: cell-based, human; settings: lacritin 10 ng/ml, 1 minute; tyrosine phosphorylation as gauge
Description: (§1) Lacritin's function in cell survival was first assessed in an antibody array screen. Serum-free cultures of salivary ductal cells were treated either with recombinant lacritin at 10 ng/ml or an equal volume of 1×PBS (dialysis medium for recombinant lacritin) for 1 minute.

[5] = test system: bcl-2; test: Antibody array screen, salivary ductal cells; format: cell-based, human; settings: lacritin 10 ng/ml, 1 minute; tyrosine phosphorylation as gauge
Description: as §1

Row | Molecule | protection from cell death by TNF (caspase-3 activity) [1] | binding to mammalian syndecan-1 [2] | rapidity of lacritin-dependent calcium mobilization [3] | calcium signals ([3]; serum-free) | change in FAS/APO-1 levels [4] | increase in bcl-2 tyrosine phosphorylation [5]
1 | Cn1c2ccccc2c2c3c(c4c5ccccc5n(CCC#N)c4c21)CNC3=O [Go 6976] | do not protect | – | – | – | – | –
2 | B1 | – | bound | 20 to 30 s | rapid and sustained calcium waves | −81% | 11%
